# B1: HDV Ribozyme (parent)
# chain: GGCCGGCAUGGUCCCAGCCUCCUCGCUGGCGCCGGCUGGGCAACAUUCCGAGGGGACCGUCCCCUCGGUAAUGGCGAAUGGGACCCA
# Variants of: B1
# Test: self-cleavage, relative activity (ratio to wild type); higher = more cleavage; co-transcriptional
row,Variant,self-cleavage
1,GGCCGGCAUGGUCCCAGCCUCCUCGCUGGCGCCGGCUGGGCAACAUUCCGAGGCGACCGUCCCCUCGGUAAUGGCGAAUAGGACCCA,0.362
2,GGCCGGCAUGGUCCCAGCCUCCUCGCUGGCGCCGGCUGGGCAACAUUCCGAGGCGACCGUCCCCUCGGUAAUUGCGAAUGGGACCCA,0.205
3,GGCCGGCAUGGUCCCAGCCUCCUCGCUGGCGCCGGCUGGGCAACAUUCCGAGGGAACCGUCCCGUCGGUAAUGGCGAAUGGGACCCA,0.962
4,GGCCGGCAUGGUCCCAGCCUCCUCGCUGGCGCCGGCUGGGCAACAUUCCGAGGGAACCGUCCCAUCGGUAAUGGCGAAUGGGACCCA,0.95
5,GGCCGGCAUGGUCCCAGCCUCCUCGCUGGCGCCGGCUGGGCAACAUUCCGAGGGAACCGUCCCCUCGGUAAUGGUGAAUGGGACCCA,0.208
6,GGCCGGCAUGGUCCCAGCCUCCUCGCUGGCGCCGGCUGGGCAACAUUCCGAGGGAACCGUCCCCUCGGUAAUGGGGAAUGGGACCCA,0.136
7,GGCCGGCAUGGUCCCAGCCUCCUCGCUGGCGCCGGCUGGGCAACAUUCCGAGGAGACCGUCCCCUCGGUAAUGGCGAAGGGGACCCA,0.643
8,GGCCGGCAUGGUCCCAGCCUCCUCGCUGGCGCCGGCUGGGCAACAUUCCGAGGGAACCGUCCCCUGGGUAAUGGCGAAUGGGACCCA,0.843
9,GGCCGGCAUGGUCCCAGCCUCCUCGCUGGCGCCGGCUGGGCAACAUUCCGAGGGAACCGUCCCCUCGAUAAUGGCGAAUGGGACCCA,0.831
10,GGCCGGCAUGGUCCCAGCCUCCUCGCUGGCGCCGGCUGGGCAACAUUCCGAGGUGACCGUCCCCUCAGUAAUGGCGAAUGGGACCCA,1.01
11,GGCCGGCAUGGUCCCAGCCUCCUCGCUGGCGCCGGCUGGGCAACAUUCCGAGGGAACCGUCCCCUCAGUAAUGGCGAAUGGGACCCA,0.997
12,GGCCGGCAUGGUCCCAGCCUCCUCGCUGGCGCCGGCUGGGCAACAUUCCGAGGUGACCGUCCCCUCGGUAAUGCCGAAUGGGACCCA,0.182
13,GGCCGGCAUGGUCCCAGCCUCCUCGCUGGCGCCGGCUGGGCAACAUUCCGAGGCGACCGUCCACUCGGUAAUGGCGAAUGGGACCCA,1.02
14,GGCCGGCAUGGUCCCAGCCUCCUCGCUGGCGCCGGCUGGGCAACAUUCCGAGGUGACCGUCCCCUCGGUAAUGGCGAAUGGGUCCCA,0.446
15,GGCCGGCAUGGUCCCAGCCUCCUCGCUGGCGCCGGCUGGGCAACAUUCCGAGGGAACCGUCCCCUCGGUCAUGGCGAAUGGGACCCA,1.06
16,GGCCGGCAUGGUCCCAGCCUCCUCGCUGGCGCCGGCUGGGCAACAUUCCGAGGGAACCGUCCCCUCGGUUAUGGCGAAUGGGACCCA,0.831
17,GGCCGGCAUGGUCCCAGCCUCCUCGCUGGCGCCGGCUGGGCAACAUUCCGAGGGAGCCGUCCCCUCGGUAAUGGCGAAUGGGACCCA,0.882
18,GGCCGGCAUGGUCCCAGCCUCCUCGCUGGCGCCGGCUGGGCAACAUUCCGAGGCGACCGUCCCCUCGGUAACGGCGAAUGGGACCCA,0.69
19,GGCCGGCAUGGUCCCAGCCUCCUCGCUGGCGCCGGCUGGGCAACAUUCCGAGGCGACCGUCCCCUCGGUAAAGGCGAAUGGGACCCA,0.702
20,GGCCGGCAUGGUCCCAGCCUCCUCGCUGGCGCCGGCUGGGCAACAUUCCGAGGCGACCGCCCCCUCGGUAAUGGCGAAUGGGACCCA,1.22
21,GGCCGGCAUGGUCCCAGCCUCCUCGCUGGCGCCGGCUGGGCAACAUUCCGAGGCGACCGACCCCUCGGUAAUGGCGAAUGGGACCCA,1.08
22,GGCCGGCAUGGUCCCAGCCUCCUCGCUGGCGCCGGCUGGGCAACAUUCCGAGGGAACCGUCCCCUCGGUAAUCGCGAAUGGGACCCA,0.658

row,Variant,self-cleavage
1,GGCCGGCAUGGUCCCAGCCUCCUCGCUGGCGCCGGCUGGGCAACAUUCCGAGGGAACCGUCCCCUCGGUAAUUGCGAAUGGGACCCA,0.457
2,GGCCGGCAUGGUCCCAGCCUCCUCGCUGGCGCCGGCUGGGCAACAUUCCGAGGUGACCGUCUCCUCGGUAAUGGCGAAUGGGACCCA,0.98
3,GGCCGGCAUGGUCCCAGCCUCCUCGCUGGCGCCGGCUGGGCAACAUUCCGAGGUGACCGUCGCCUCGGUAAUGGCGAAUGGGACCCA,1.08
4,GGCCGGCAUGGUCCCAGCCUCCUCGCUGGCGCCGGCUGGGCAACAUUCCGAGGCGACCGUCCCCUCGGUAAUGGCGAAUGGGACCCA,0.98
5,GGCCGGCAUGGUCCCAGCCUCCUCGCUGGCGCCGGCUGGGCAACAUUCCGAGGUGACCGUCCCCUCGGUAAUGGCGAAUGGGACCCA,0.98
6,GGCCGGCAUGGUCCCAGCCUCCUCGCUGGCGCCGGCUGGGCAACAUUCCGAGGCGACCGUCCCAUCGGUAAUGGCGAAUGGGACCCA,0.574
7,GGCCGGCAUGGUCCCAGCCUCCUCGCUGGCGCCGGCUGGGCAACAUUCCGAGGGAACGGUCCCCUCGGUAAUGGCGAAUGGGACCCA,0.941
8,GGCCGGCAUGGUCCCAGCCUCCUCGCUGGCGCCGGCUGGGCAACAUUCCGAGGUGACGGUCCCCUCGGUAAUGGCGAAUGGGACCCA,0.997
9,GGCCGGCAUGGUCCCAGCCUCCUCGCUGGCGCCGGCUGGGCAACAUUCCGAGGUGACAGUCCCCUCGGUAAUGGCGAAUGGGACCCA,1.07
10,GGCCGGCAUGGUCCCAGCCUCCUCGCUGGCGCCGGCUGGGCAACAUUCCGAGGUGACCGGCCCCUCGGUAAUGGCGAAUGGGACCCA,0.989
11,GGCCGGCAUGGUCCCAGCCUCCUCGCUGGCGCCGGCUGGGCAACAUUCCGAGGGAACCGUCGCCUCGGUAAUGGCGAAUGGGACCCA,0.686
12,GGCCGGCAUGGUCCCAGCCUCCUCGCUGGCGCCGGCUGGGCAACAUUCCGAGGUGAACGUCCCCUCGGUAAUGGCGAAUGGGACCCA,0.997
13,GGCCGGCAUGGUCCCAGCCUCCUCGCUGGCGCCGGCUGGGCAACAUUCCGAGGUGAUCGUCCCCUCGGUAAUGGCGAAUGGGACCCA,0.993
14,GGCCGGCAUGGUCCCAGCCUCCUCGCUGGCGCCGGCUGGGCAACAUUCCGAGGCGACCGUCCCCUCGGUAAUGGCGAACGGGACCCA,0.482
15,GGCCGGCAUGGUCCCAGCCUCCUCGCUGGCGCCGGCUGGGCAACAUUCCGAGGUAACCGUCCCCUCGGUAAUGGCGAAUGGGACCCA,1.01
16,GGCCGGCAUGGUCCCAGCCUCCUCGCUGGCGCCGGCUGGGCAACAUUCCGAGGCGACCGUCCCCUCGGUAAUGGCGAAUGGGCCCCA,0.332
17,GGCCGGCAUGGUCCCAGCCUCCUCGCUGGCGCCGGCUGGGCAACAUUCCGAGGCGACCGUCGCCUCGGUAAUGGCGAAUGGGACCCA,0.855
18,GGCCGGCAUGGUCCCAGCCUCCUCGCUGGCGCCGGCUGGGCAACAUUCCGAGGUGACCGUCCCCUCGGUAAUGGCGAAUGGAACCCA,0.277
19,GGCCGGCAUGGUCCCAGCCUCCUCGCUGGCGCCGGCUGGGCAACAUUCCGAGGUGACCGUCCCCUCGGUAAUGGCGACUGGGACCCA,0.158
20,GGCCGGCAUGGUCCCAGCCUCCUCGCUGGCGCCGGCUGGGCAACAUUCCGAGGUGACCGUCCCCUCGGUGAUGGCGAAUGGGACCCA,1.03
21,GGCCGGCAUGGUCCCAGCCUCCUCGCUGGCGCCGGCUGGGCAACAUUCCGAGGUGACCGUCCCCACGGUAAUGGCGAAUGGGACCCA,0.513
22,GGCCGGCAUGGUCCCAGCCUCCUCGCUGGCGCCGGCUGGGCAACAUUCCGAGGCGACCGUCCCCUCGAUAAUGGCGAAUGGGACCCA,0.858

row,Variant,self-cleavage
1,GGCCGGCAUGGUCCCAGCCUCCUCGCUGGCGCCGGCUGGGCAACAUUCCGAGGCGACCGUCCCCUCGGUAAUGGCCAAUGGGACCCA,0.981
2,GGCCGGCAUGGUCCCAGCCUCCUCGCUGGCGCCGGCUGGGCAACAUUCCGAGGCGACCGUCCCCUCGGUAAUGGCUAAUGGGACCCA,1.11
3,GGCCGGCAUGGUCCCAGCCUCCUCGCUGGCGCCGGCUGGGCAACAUUCCGAGGCGACCGUCCCCUCGGUAAUGACGAAUGGGACCCA,0.314
4,GGCCGGCAUGGUCCCAGCCUCCUCGCUGGCGCCGGCUGGGCAACAUUCCGAGGCGACCGUCCCCUCGGUAAUGCCGAAUGGGACCCA,0.198
5,GGCCGGCAUGGUCCCAGCCUCCUCGCUGGCGCCGGCUGGGCAACAUUCCGAGGUGACCGUCCCCUCGGUAAUAGCGAAUGGGACCCA,0.776
6,GGCCGGCAUGGUCCCAGCCUCCUCGCUGGCGCCGGCUGGGCAACAUUCCGAGGCGACCGUCCCCUCGGUAAUGGCGGAUGGGACCCA,0.831
7,GGCCGGCAUGGUCCCAGCCUCCUCGCUGGCGCCGGCUGGGCAACAUUCCGAGGGAACCGUCCCCUCGGUAAUGGCGAAUGGGGCCCA,0.919
8,GGCCGGCAUGGUCCCAGCCUCCUCGCUGGCGCCGGCUGGGCAACAUUCCGAGGCGACUGUCCCCUCGGUAAUGGCGAAUGGGACCCA,1.11
9,GGCCGGCAUGGUCCCAGCCUCCUCGCUGGCGCCGGCUGGGCAACAUUCCGAGGCGACCGUCCCCUCGGUAAUGGCGAAUGGGACCCG,0.936
10,GGCCGGCAUGGUCCCAGCCUCCUCGCUGGCGCCGGCUGGGCAACAUUCCGAGGUGACCGUCCCUUCGGUAAUGGCGAAUGGGACCCA,0.905
11,GGCCGGCAUGGUCCCAGCCUCCUCGCUGGCGCCGGCUGGGCAACAUUCCGAGGUGACCGUCCCAUCGGUAAUGGCGAAUGGGACCCA,0.486
12,GGCCGGCAUGGUCCCAGCCUCCUCGCUGGCGCCGGCUGGGCAACAUUCCGAGGCGACCGUGCCCUCGGUAAUGGCGAAUGGGACCCA,1.16
13,GGCCGGCAUGGUCCCAGCCUCCUCGCUGGCGCCGGCUGGGCAACAUUCCGAGGCGACCUUCCCCUCGGUAAUGGCGAAUGGGACCCA,1.15
14,GGCCGGCAUGGUCCCAGCCUCCUCGCUGGCGCCGGCUGGGCAACAUUCCGAGGUGACCGUCCCCUCGGAAAUGGCGAAUGGGACCCA,0.899
15,GGCCGGCAUGGUCCCAGCCUCCUCGCUGGCGCCGGCUGGGCAACAUUCCGAGGUGACCGUCCCCUCGGGAAUGGCGAAUGGGACCCA,1.03
16,GGCCGGCAUGGUCCCAGCCUCCUCGCUGGCGCCGGCUGGGCAACAUUCCGAGGUGACCGUCCCCUCGGUAAUGGCGAAUGGGACUCA,1.02
17,GGCCGGCAUGGUCCCAGCCUCCUCGCUGGCGCCGGCUGGGCAACAUUCCGAGGUGACCGUCCCCUCGGUAAUGGCGAAUGGGACACA,0.964
18,GGCCGGCAUGGUCCCAGCCUCCUCGCUGGCGCCGGCUGGGCAACAUUCCGAGGCGACCGUCCCCUCGGGAAUGGCGAAUGGGACCCA,1.07
19,GGCCGGCAUGGUCCCAGCCUCCUCGCUGGCGCCGGCUGGGCAACAUUCCGAGGCGACCGUCCCCUCGGUACUGGCGAAUGGGACCCA,0.608
20,GGCCGGCAUGGUCCCAGCCUCCUCGCUGGCGCCGGCUGGGCAACAUUCCGAGGCGACCGUCCCCUCGGUAGUGGCGAAUGGGACCCA,0.646

# — the RNAGym collection of RNA variant scans (doi:10.7554/elife.80360)
